Here are results for two molecules from patent publication US20130052638, “Methods for detecting DNA-binding proteins” (Agency for Science, Technology and Research, published 2013).

The target in data set [1] is T1, Estrogen receptor beta (ERβ) (UniProt Q92731 Q92731:1-530). The experiment in a line: competition; free competitor at 4:1 over ERβ, 360 nM ERβ, 56 mM KCl, 5 min; attributed to non-specific binding. The note with it: chain copies: 2. As for the experimental part:
(§1) In this study, excess unmodified DNA competitor (i.e., wtERE and scrDNA, are used as strong and weak competitors, respectively) was pre-incubated with the ERβ at room temperature for 20 minutes to allow for complex formation (molar ratio of ERβ:dsDNA is 1:4), followed by the addition to the complementary mixture of v1-v2-AuNPs in 56 mM KCl, with final ERβ concentration of 360 nM. In the presence of strong competitor (wtERE), limited amount of ERβ bound to the ERE anchored on the AuNPs surface, leading to extensive particle aggregation in salt solution. […]
(§2) The aggregation state of the AuNPs was quantified using UV-Vis absorption spectrum as indicated by the shift of LSPR peak at 526 nm wavelength to a longer wavelength (e.g. 650 nm). The UV-Vis absorbance ratio at 650 nm to that at 526 nm, i.e., A650/A526 is indicative of the particle aggregation degree where a higher ratio is directly related to a larger extent of aggregation. In this study, the deviation percentage (i.e., [(X−Y)/Y]*100%) was calculated based on the difference in aggregation ratio of AuNP samples (measure as A650/A526) with competitors (denoted as X) relative to that without competitor (denoted as Y) at 5 minutes after mixing in the 56 mM KCl-containing protein binding buffer. A 9.0% of deviation was recorded for the scrambled DNA sequence (scrDNA). […]

Data set [2] has as its target T1, Estrogen receptor beta (ERβ). The experiment in a line: competition; free competitor at 4:1 over ERβ, 360 nM ERβ, 56 mM KCl, 5 min; strong competitor. The following applies: chain copies: 2. Here is the method:
as §1, §2

T1 sequence (Q92731 whole entry, one chain of several): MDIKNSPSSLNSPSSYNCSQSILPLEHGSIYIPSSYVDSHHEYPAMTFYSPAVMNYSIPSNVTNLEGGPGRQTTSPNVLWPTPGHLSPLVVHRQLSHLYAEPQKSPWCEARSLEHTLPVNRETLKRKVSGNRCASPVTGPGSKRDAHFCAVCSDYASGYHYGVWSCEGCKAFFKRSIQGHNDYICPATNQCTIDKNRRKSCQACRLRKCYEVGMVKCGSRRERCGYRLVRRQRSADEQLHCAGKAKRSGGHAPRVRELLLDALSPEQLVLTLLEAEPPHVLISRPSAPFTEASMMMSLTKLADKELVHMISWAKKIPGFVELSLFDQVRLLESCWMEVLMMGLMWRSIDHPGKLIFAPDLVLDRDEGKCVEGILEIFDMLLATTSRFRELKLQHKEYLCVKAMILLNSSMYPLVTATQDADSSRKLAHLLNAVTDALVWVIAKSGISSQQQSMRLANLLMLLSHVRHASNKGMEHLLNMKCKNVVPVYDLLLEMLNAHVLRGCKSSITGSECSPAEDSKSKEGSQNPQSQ

B1: scrDNA competitor (free) (dsDNA)
DNA 1: GTCCAAAGTCAATCGCCAGCACGATGATCAAAGT
DNA 2: ACTTTGATCATCGTGCTGGCGATTGACTTTGGAC
Consider B1, for which, in data set [1], the binding signal is 9 % deviation of aggregation ratio.

B2: wtERE competitor (free) (dsDNA)
DNA 1: GTCCAAAGTCAGGTCACAGTGACCTGATCAAAGT
DNA 2: ACTTTGATCAGGTCACTGTGACCTGACTTTGGAC
For the molecule B2, the binding signal in data set [2] was 35 % deviation of aggregation ratio.
